{"source": "patent US6509447B1", "about": "“G protein chimeras and methods of screening compounds” (Glaxo Welcome Inc., priority 1997, dated 2003)", "molecules": {"B1": {"name": "Gpa1p: endogenous yeast Gα subunit, product of the GPA1 gene (protein, UniProt P08539 2-472, looked up)", "Guanine nucleotide-binding …": "GCTVSTQTIGDESDPFLQNKRANDVIEQSLQLEKQRDKNEIKLLLLGAGESGKSTVLKQLKLLHQGGFSHQERLQYAQVIWADAIQSMKILIIQARKLGIQLDCDDPINNKDLFACKRILLKAKALDYINASVAGGSDFLNDYVLKYSERYETRRRVQSTGRAKAAFDEDGNISNVKSDTDRDAETVTQNEDADRNNSSRINLQDICKDLNQEGDDQMFVRKTSREIQGQNRRNLIHEDIAKAIKQLWNNDKGIKQCFARSNEFQLEGSAAYYFDNIEKFASPNYVCTDEDILKGRIKTTGITETEFNIGSSKFKVLDAGGQRSERKKWIHCFEGITAVLFVLAMSEYDQMLFEDERVNRMHESIMLFDTLLNSKWFKDTPFILFLNKIDLFEEKVKSMPIRKYFPDYQGRVGDAEAGLKYFEKIFLSLNKTNKPIYVKRTCATDTQTMKFVLSAVTDLIIQQNLKKIGII"}}, "key": {"[1]": {"tested_on": "pheromone response pathway (FUS1-LacZ; Ste2p receptor)", "test": "ONPG β-galactosidase assay of FUS1-LacZ in extracts of MMY9 cells", "type": "cell-based, Saccharomyces cerevisiae", "conditions": "G protein expressed from GPA1 promoter", "method": "(§1) Assays for FUS1-IacZ Expression. β-galactosidase activities in cell extracts were measured with two assays. In the first assay (ONPG assay), cell extracts were incubated with the substrate ONPG as described by (37). Units were defined as (A420×1000)/(OD600x×t×v) (25). In the chemiluminescent assay, cells were grown to late logarithmic phase and diluted to 0.02 OD600 in 100 μl SC-WH medium in the presence or absence of 1 μM α-factor in 96-well microtitre plates. After incubation (30° C.; 6 hours), 20 μl of cells were removed and mixed with 20 μl assay mix (125 mM sodium phosphate pH 7.6, 15 mM MgSO4, 200 μM Galacton-Star β-galactosidase substrate (Tropix), 10% (v/v) Sapphire II (Tropix), 1 U/μl oxalyticase (Enzogenetics)). After incubation (30° C.; 1 hr) chemiluminescence was determined in a Top-count scintillation counter (Packard).\nThe Gα15/Gα16 subunits are reported to interact with a much broader range of receptors than is typical for a Gα subunit, and have the ability to couple receptors which normally interact with Gαi, Gαs or Gαq (26). […] We constructed a plasmid encoding a Gpa1/Gα16 C-terminal domain chimera (pRS314-Gpa1/Gα16; FIG. 5b); FIG. 6h) derived from the same centromeric vector as used for expression of functional chimeras described above. The level of FUS1-LacZ induction in MMY9 cells expressing the Gpa1/Gα16 chimera was determined by preparing cell extracts, and incubating them with the LacZ substrate o-Nitrophenyl β-D-galactopyranoside (ONPG; see Materials and Methods). Gpa1/Gα16 reduced FUS1-LacZ expression resulting in β-galactosidase activity of 79+/−8 units (Table 2). This level was intermediate between the activity of control cells transformed with vector (239+/−30 units), in which the pathway is constitutively activated due to the absence of Gα, and the basal activity in cells producing wild-type Gpa1p (19+/−4 units)."}, "[2]": {"tested_on": "pheromone response pathway", "test": "Chemiluminescent β-galactosidase assay of FUS1-LacZ in MMY9 cells", "type": "cell-based, Saccharomyces cerevisiae", "conditions": "GPA1 promoter, mean ±SD, n≧5", "method": "as §1\nA Gpa1/Gαs chimera has been reported to couple the growth hormone releasing hormone receptor (12) when expressed from the strong constitutive promoter of the yeast phosphoglycerate kinase (PGK1) gene. We constructed Gpa1/Gαs and Gpa1/Gαq chimeras similar to those described above (FIG. 5b) and expressed them in MMY9 cells from the promoter of the GPA1 gene. We assayed FUS1-LacZ activity in these cells using a chemiluminescent assay, rather than the ONPG assay described above. […]"}, "[3]": {"target": "T1, Ste2p (Saccharomyces cerevisiae, UniProt D6VTK4)", "T1 sequence (D6VTK4 1-431)": "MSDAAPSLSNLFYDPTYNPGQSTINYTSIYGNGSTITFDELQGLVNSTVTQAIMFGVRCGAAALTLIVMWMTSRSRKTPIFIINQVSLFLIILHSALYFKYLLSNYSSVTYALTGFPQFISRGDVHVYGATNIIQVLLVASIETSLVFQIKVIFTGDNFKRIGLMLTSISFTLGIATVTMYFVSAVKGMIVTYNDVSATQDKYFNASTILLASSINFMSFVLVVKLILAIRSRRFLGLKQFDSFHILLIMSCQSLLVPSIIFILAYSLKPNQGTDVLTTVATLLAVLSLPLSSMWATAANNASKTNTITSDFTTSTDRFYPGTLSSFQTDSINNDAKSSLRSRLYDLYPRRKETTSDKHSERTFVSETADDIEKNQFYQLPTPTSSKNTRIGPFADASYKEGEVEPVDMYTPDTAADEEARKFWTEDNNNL", "test": "Reverse halo assay for FUS1-HIS3 expression, MMY9 cells, Ste2p", "type": "cell-based", "set-up": "stimulates the endogenous yeast receptor Ste2p; endogenous in cells; host or cells: Saccharomyces cerevisiae strain MMY9 (derived from W303-1A, MATa)", "conditions": "MMY9 cells with pRS314-GPA1, 3 nmol α-factor", "method": "Assay for FUS1-HIS3 Expression. Reverse halo assays were carried out by growing MMY9 cells to early stationary phase (OD600≈4) in liquid SC-glucose (2%) medium lacking tryptophan and uracil. A uniform layer of cells (5×10^7) was plated to 22.5 cm by 22.5 cm bioassay dishes (Nunc) in 100 ml SC-glucose agar (1%) equilibrated to 50° C. This medium lacked tryptophan, uracil and histidine, and was supplemented with 10 mM 3-aminotriazole, and buffered to pH 7.0 with 0.1M sodium phosphate. Antibiotic discs were placed on the solidified agar, and a volume of agonist solution (1-5 μl) was applied to each disc. Plates were incubated at 30° C. for 3 days.\nThe four receptors were: the melatonin ML1B receptor, the serotonin 5HT1A receptor, the somatostatin SST2 receptor and the purinergic nucleotide receptor, P2Y2. […] Activation of the pheromone response pathway was monitored with two integrated reporter genes: […] allowing a growth readout in medium lacking histidine, and FUS1-lacZ allowing a β-galactosidase readout. […] Agonist-dependent activation of FUS1-HIS3 was determined by reverse halo assay in which agonists were applied to the filter discs in the arrangement shown in panel A, in quantities as follows: 3 nmol of somatostatin-14 (S-14); 40 nmol of melatonin (Mel); 3 nmol of α-factor; 100 nmol of UTP; 40 nmol of serotonin (5-HT). […]"}}}
{"molecule": "B1", "values": [{"measurement": "β-galactosidase activity (FUS1-LacZ), No Alpha Factor", "setting": "[1]", "result": "19+/−4 units"}, {"measurement": "β-galactosidase activity (FUS1-LacZ), Plus Alpha Factor", "setting": "[1]", "result": "273 +/− 49 units"}, {"measurement": "β-galactosidase activity (FUS1-LacZ), No Alpha Factor", "setting": "[1]; listed as GPA1", "result": "19 +/− 4 units"}, {"measurement": "FUS1-LacZ Activity, 1 μM α-factor", "setting": "[2]", "result": "27.2 ± 1.7 light units (×10^6 cps)"}, {"measurement": "FUS1-LacZ Activity, No α-factor", "setting": "[2]", "result": "0.73 ± 0.25 light units (×10^6 cps)"}, {"measurement": "agonist-dependent activation of FUS1-HIS3 (halo of cell growth)", "setting": "[3]", "result": "increased expression of FUS1-HIS3 to enable a halo of cell growth"}]}
